Target: T1, human acid ceramidase (aCDase, ASAH1) β-subunit (human, UniProt Q13510 143-395, N-glycosylated (insect cell glycans); disulfide C340 to C31 of the α-subunit; disulfide C388/C392)
T1 construct: acid ceramidase, human, UniProt Q13510; the construct spans residues 22-395 and autocleaves before Cys 143, which becomes the N terminus of the β-subunit: residues 143-395; Made as one chain with the α-subunit and set free by autocleavage; also called 30 kDa β-subunit
T1 sequence (looked up): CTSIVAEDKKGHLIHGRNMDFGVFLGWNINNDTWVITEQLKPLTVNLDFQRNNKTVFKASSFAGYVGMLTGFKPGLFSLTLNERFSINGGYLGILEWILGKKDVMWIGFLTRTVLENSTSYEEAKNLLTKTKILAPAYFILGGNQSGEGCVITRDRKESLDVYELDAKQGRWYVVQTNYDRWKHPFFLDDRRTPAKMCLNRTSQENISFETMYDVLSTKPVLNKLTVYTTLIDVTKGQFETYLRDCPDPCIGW
Experiment: crystal structure; autocleaved human aCDase, incubated with 1 mM ceranib-2 and 1 mM Triton X-100, crystallised at 22 °C in 100 mM sodium phosphate-citrate pH 4.3, 200 mM Li2SO4, 20% PEG 1000; the two subunits come from one chain and are also linked by a disulfide
Settings: both partners purified

B1: human acid ceramidase (aCDase, ASAH1) α-subunit (domain or fragment, UniProt Q13510 22-142, looked up)
chain: QHAPPWTEDCRKSTYPPSGPTYRGAVPWYTINLDLPPYKRWHELMLDKAPVLKVIVNSLKNMINTFVPSGKVMQVVDEKLPGLLGNFPGPFEEEMKGIAAVTDIPLGEIISFNIFYELFTI
modifications: N-glycosylated (insect cell glycans); disulfide C31 to C340 of the β-subunit
notes: acid ceramidase, human, UniProt Q13510 variant Ile93Val; the construct spans residues 22-395 and autocleaves at the peptide bond between Ile 142 and Cys 143, so the α-subunit is residues 22-142; no removal of the tag is told; Residues 141 and 142 are disordered in the structure; also called 13 kDa α-subunit
binding result: binds

Reference: article PMC5915598, “Structural basis for the activation of acid ceramidase” (Nature Communications, 2018)
